# Assay results published in patent US20210322404A1, “FGFR REGULATION FOR THE TREATMENT OF VIRAL INFECTIONS” (ETH ZURICH, priority 2016, published 2021).
# B1: FGF7: recombinant human FGF7, the classical ligand of FGFR2b (protein, UniProt P21781 32-194, looked up)
# Fibroblast growth factor 7: CNDMTPEQMATNVNCSSPERHTRSYDYMEGGDIRVRRLFCRTQWYLRIDKRGKVKGTQEMKNNYNIMEIRTVAVGIVAIKGVESEFYLAMNKEGKLYAKKECNEDCNFKELILENHYNTYASAKWTHNGGEMFVALNQKGIPVRGKKTKKEQKTAHFLPMAIT
# What was measured:
# [1] = system: HSV-1; test: HSV-1 infection of human primary foreskin keratinocytes; conditions: HSV-1 MOI=0.5, 24 h
# [2] = system: interferon-stimulated genes (ISGs); test: ISG expression in mouse keratinocytes treated with FGF7 and/or IFNα (qRT-PCR); type: cell-based
# [3] = system: HSV-1; test: HSV-1 infection of HaCaT cells, virus load; type: cell-based, Herpes Simplex Virus type 1
# Experimental: FIGS. 5A-C relate to HaCaT cells infected with HSV-1 (MOI=0.5) after overnight serum starvation, either alone or in combination with FGF7 (10 ng/ml) or IFNα (1000U/ml). 24 h after infection, virus load was determined by qPCR for the HSV-1 Glycoprotein B (Glyc-B) gene relative to the human β-actin gene (A) or visualized by immunofluorescence staining for HSV-1 Glycoprotein D (Glyc-D) (red) (B). The Glyc-B/β-actin gene ratio in HSV-1 infected cells was set to 1. Cell nuclei were stained with DAPI (blue). Magnification bar: 200 μm. (C) Transmission microscopy images of HaCaT cells taken 48 h after HSV-1 infection. […] Magnification bar: 80 μm. Representative data out of four experiments are shown.
# FIGS. 5 D & E relate to overnight-starved HaCaT cells infected with HSV-1 (MOI=0.5) alone or in combination with IFNα (1000 U/ml), IFNα and FGF7 (10 ng/ml) (D); or FGF7 at different concentrations (E).
# FIG. 5F pertains to serum-starved HaCaT cells that were infected with HSV-1 (MOI 0.5-1). After 4 h, infected cells were washed with PBS, followed by addition of fresh serum-free culture medium containing FGF7 (10 ng/ml).
# FIGS. 5G-K pertains to overnight-starved HaCaT cells infected with HSV-1 (MOI=0.5) alone or in combination with FGF7, which was added at the indicated time points. 12 h after infection, cells were analyzed for Glyc-B DNA (H) and, RSAD2 and IRF7 mRNA levels by qPCR/qRT-PCR (I) or for ISG protein levels by western blotting (K). Vinculin was used as loading control.
# FIGS. 7A-C relate to serum-starved HaCaT cells that were infected with HSV-1 in the presence or absence of FGF7 (10 ng/ml), NSC23766 (20 μM), the FGFR kinase inhibitors AZD4547 (1 μM) and BGJ398 (3.5 μM) (A) or IFNα (1000 U/ml) (B). […] Magnification bar: 500 μm. The Glyc-D positive area was quantified using digital pixel measurements (C, right). A representative out of two experiments is shown.
# Frozen sections from mouse back skin were fixed with cold methanol, and unspecific binding sites were blocked with PBS/2% bovine serum albumin (BSA) (Sigma)/1% fish skin gelatin (Sigma)/0.05% Triton X-100 (Carl Roth GmbH, Karlsruhe, Germany) for 2 h at room temperature. Samples were then incubated overnight at 4° C. with anti-IRF7 or anti-K14 antibodies diluted in the same buffer. After three washes with 1×PBS/0.1% Tween 20 (Carl Roth GmbH), slides were incubated at room temperature (RT) for 4 h with secondary antibodies (AF555-conjugated anti-rabbit IgG and AF488-conjugated anti-mouse IgG) and DAPI (4′,6-diamidino-2-phenylindole dihydrochloride) (Sigma) as counter-stain, washed again and mounted with Mowiol (Hoechst, Frankfurt, Germany). Stained sections were photographed with a Leica SP1-2 confocal microscope equipped with a 63×0.6-1.32 NA (Iris) PL Apo Oil objective. For data acquisition the Leica Confocal Software (Leica, Wetzlar, Germany) was used. For immunofluorescence staining of cultured cells, they were washed with PBS and either fixed for 5 min with cold methanol for staining with antibodies against ZO-1 and IRF7, or with 4% paraformaldehyde (PFA) (Sigma) for 20 min at RT for Glyc-D staining. PFA-fixed cells were then incubated for 10 min with 0.5% Triton X-100 in PBS. After 1 h blocking in PBS containing 2% BSA, cells were stained with the primary antibodies for 1 h in the same blocking buffer. After three washes with PBS, cells were incubated with the secondary antibodies (AF555-conjugated anti-mouse IgG, AF488-conjugated anti-mouse IgG and AF555-conjugated anti-rabbit IgG) and DAPI.
# [4] = Active RAC1 detection after FGF7 treatment; type: cell-based, human; conditions: HaCaT cells, FGF7 10 ng/ml, 10 min
# Experimental: FIG. 4D pertains to mouse primary keratinocytes (left panel) or HaCaT cells (right panel), which had been treated with FGF7 (10 ng/ml) or vehicle for 10 min and analyzed for active RAC1 using the Active RAC1 detection kit (Cell Signaling). Activation of FGFR signaling under these conditions was verified by phosphorylation of ERK1/2 (p42/44).
molecule,measurement,setting,value
B1,effect on HSV-1 infection (Glyc-B qPCR),[1],confirmed
same,"expression of Ifnα subtypes, Ifnβ and Il28a (Ifnλ2)","[2]; mouse keratinocytes, FGF7 10 ng/ml",not reduced
same,increase in ISG expression in response to IFNα,"[2]; mouse primary keratinocytes, FGF7 10 ng/ml and IFNα 1000 U/ml, 6 h",reduced
same,ISG expression (qRT-PCR relative to Rps29),"[2]; primary and immortalized keratinocytes from wild-type mice, FGF7 10 ng/ml, 3 or 6 h",strongly suppressed
same,expression of ISGs in IFNAR-deficient cells,"[2]; primary keratinocytes from Ifnar KO mice, FGF7 6 h",still suppressed expression of ISGs
same,"viral DNA, FGF7 given after removal of the virus","[3]; HaCaT infected 4 h, virus removed, FGF7 10 ng/ml for 8 h",A strong increase in viral DNA
same,appearance of HSV-1 infected cells (transmission microscopy),"[3]; HaCaT, 48 h after infection",completely detached
same,IFNα-mediated reduction in viral DNA,"[3]; HaCaT, HSV-1, IFNα 1000 U/ml and FGF7 10 ng/ml",partially reverted
same,levels of viral DNA at different FGF7 concentrations,"[3]; HaCaT, HSV-1 MOI=0.5",induced the levels of viral DNA in a dose-dependent manner
same,HSV-1 glycoprotein D (Glyc-D) immunofluorescence staining,"[3]; HaCaT, HSV-1 MOI=0.5, FGF7 10 ng/ml",increased strongly
same,viral glycoprotein B (Glyc-B) DNA,"[3]; HaCaT, HSV-1 MOI=0.5, FGF7 10 ng/ml or IFNα 1000 U/ml",A strong increase in viral DNA
same,"HSV-1 replication, FGF7 present only for 4h","[3]; HaCaT, analysis 12 h after infection",no longer promoted
same,"HSV-1 replication, FGF7 added with the virus or 2h or 4h post infection","[3]; HaCaT, exposed to FGF7 for 12h, 10h or 8h",strongly promoted HSV-1 replication
same,active RAC1,[4],activated RAC1
